Here are results for three molecules from patent US8093030B2, “Thermostable viral polymerases and methods of use” (Lucigen Corporation, priority 2005, dated 2012).

One data set has as its system Poly rA: Oligo dT. The data set can be described thus: Reverse transcriptase activity by incorporation of radiolabeled dTTP. It is filed as biochemical. The method, then: Reverse transcriptase activity was detected by incorporation of radiolabeled deoxyribonucleotide triphosphates into polydeoxyribonucleotides using a ribonucleic acid template. […] Incorporation of dTTP was detected as radioactive counts adhering to DE81 filter paper. Similar reverse transcription reactions were measured by incorporation of labeled dTTP on a poly rA template using 1 unit of Tth (Promega) and 1 unit MMLV reverse transcriptase (Novagen) according to the respective manufacturers' recommended conditions.

The test system of data set [1] is single-stranded M13mp18 and double stranded pUC19 plasmid DNA. The data set can be described thus: High temperature isothermal RCA amplification with random decamer primers. Conditions: both templates. The format is biochemical. The procedure:
Five units of polymerase 3173 was used to amplify one nanogram each of single-stranded M13mp18 and double stranded pUC19 plasmid DNA. […] Either 0.5 μM or 5 μM of random decamer primers were added to each template. Reactions were incubated at 95° C. prior to addition of enzyme, then 16 hours at 55° C. with enzyme. One fiftieth of each reaction was resolved on a 1% agarose gel.
Results are shown in FIG. 5, Panel A. Lanes are as follows: five units of 3173 wild type DNA polymerase used to amplify M13mp18 single-stranded DNA template (lanes 2 and 3) and pUC19 double-stranded DNA (lanes 4 and 5) or no template (lane 6). Random ten nucleotide oligomer primers are added in the concentrations of 5 μM (lanes 2, 4 and 6) or 0.5 μM (lanes 3 and 5).
To determine if the amplification was specific for the template DNA, one μl of the amplification product of the positive pUC19 reaction was tested in a PCR reaction using primers specific for a 1 kb sequence in the bla gene of the original plasmid template. As a negative control, a reaction lacking deoxynucleotides was analyzed using PCR. As a positive control, the 1 kb sequence was amplified directly from 1 ng of pUC19.

The test system of data set [2] is plasmid DNA nicked with N.Bst NB1. In words: Isothermal RCA in the absence of added primers (nick-initiated synthesis).
Procedure: Suitably, nick-initiated polymerase activity can be detected, e.g., on an agarose gel, as an increase in the amount of DNA product due to synthesis in the presence of a nicking enzyme as compared to minimal or no product synthesized when nicking enzyme is absent from the reaction.
Reactions containing 10 ng of plasmid DNA, 20 mM Tris-HCl, 10 mM (NH4)2SO4, 10 mM KCl, 2 mM MgSO4, 0.1% Triton X-100, pH 8.8 at 25° C., and 200 μM each of dGTP, dATP, dTTP and dCTP were incubated for 2 hours at 56° C. with or without 10 units of nick-generating enzyme N.Bst NB1 (NEB) and either no DNA polymerase, 200 units of 3173 wt or 400 units of 3173 (D49A) mutant enzyme. Parallel reactions were performed in the absence of nicking enzyme, polymerase or both. Amplification products were analyzed by agarose gel electrophoresis.
In data set [3] the test system is primed single stranded M13 DNA. In words: Binding constant (Km) for primed template. It is filed as biochemical. To be noted: nucleotides in excess, 70° C. The method, then:
The binding constant (reported as Km, the concentration at which the reaction rate is 50% maximal) for nucleotides by polymerase 3173 was determined using activated calf thymus DNA as a template. Reactions were maintained under pseudo-first order conditions using a molar excess of all components, with the exceptions of the enzyme and the nucleotides. Reactions (50 μl) were incubated at 70° C. and samples (5 μl each) were removed at varying time points and spotted on DE81 paper. Activity was determined as described in Example 6. The binding constant for primed template was similarly determined except that nucleotides were supplied in excess and the concentration of primed template (primed single stranded M13 DNA) was varied.

Data set [4] relates to radiolabeled polynucleotide. In words: Exonuclease assay (radioactive nucleotide release). The format is biochemical. The procedure:
For example, polynucleotides can be synthesized such that a detectable proportion of the nucleotides are radioactively labeled. These polynucleotides are incubated in an appropriate buffer in the presence of the polypeptide to be tested. After incubation, the polynucleotide is precipitated and exonuclease activity is detectable as radioactive counts due to free nucleotides in the supernatant.
The presence of a 3′-5′ exonuclease domain in the 3173 DNA polymerase was detected by reduction in molecular weight of a 5′ fluorescently labeled oligonucleotide. Upon incubation of the primer/template complex described in Example 5, under the same conditions, a portion of the primer product was reduced in apparent molecular weight. This reduction in size was detected by capillary electrophoresis using an ABI 310 Genetic Analyzer operated in GeneScan mode. The presence of an exonuclease domain was confirmed by sequence alignment and by incubation of the polymerase with a radiolabeled polynucleotide, followed by digestion and precipitation with trichloroacetic acid. Radioactivity due to free nucleotides in the supernatant was measured.
An exonuclease assay was performed to confirm that exonuclease activity was eliminated in the mutants. […]
Exonuclease activity for polymerase 3173 was determined as described in Example 7.

Another data set deals with lacIq gene. In words: Fidelity assay, lacIq amplification with blue/white colony count. Conditions: 25 PCR cycles, target size 349 for lacIq.
The subject of data set [5] is plasmid and random primers. In words: Strand displacement activity in rolling circle amplification (RCA) with random primers. It is filed as biochemical. The method, then: As used herein, “strand displacement activity” refers to the ability of a polymerase to displace downstream DNA encountered during synthesis. Protocols such as, e.g., strand displacement amplification (SDA) may exploit this activity. Strand displacement activity may be determined using primer-initiated synthesis. A polymerase of the invention is incubated in the presence of a plasmid and random primers. A polymerase of the invention may extend the primer the complete circumference of the plasmid at which point the 5′ end of the primer is encountered. If the polymerase is capable of strand displacement activity, the nascent strand of DNA is displaced and the polymerase continues DNA synthesis. The presence of strand displacement activity results in a product having a molecular weight greater than the original template. The higher molecular weight product can be easily detected by agarose gel electrophoresis.
Strand displacement activity was determined using primer-initiated synthesis in a rolling circle amplification (RCA) protocol. Briefly, polymerase 3173 was incubated in the presence of a plasmid and random primers. Polymerase 3173 extended the primer the complete circumference of the plasmid at which point the 5′ end of the primer was encountered.

A further data set relates to activated ct DNA. The data set can be described thus: Inhibition of radioactive nucleotide incorporation by chain terminating analogs. It is filed as biochemical. Conditions: control, 40 μM each dNTP, 70° C. 30 min. The procedure:
Based on alignment with family A DNA polymerases, amino acid 418 of the polymerase 3173 mutant D49A was mutated from phenylalanine to tyrosine. The mutant protein was expressed and the cells lysed and heat-treated at 70° C. for 10 minutes to inactivate host proteins. The polymerase 3173 mutant D49A/F418Y was tested for inhibition of radioactive nucleotide incorporation using chain terminating nucleotide analogs in the same mix as unlabeled deoxynucleotides. […] In separate reactions both the D49A/F418Y mutant and purified polymerase 3173 mutant D49A were tested for inhibition by 4 mM each of ddNTPs and 4 mM each acycloNTPs. A control with no chain terminators was included. 50 μl reactions were incubated at 70° C. for 30 min. 15 μl of each reaction was spotted on DE81 paper, washed and counted, and units of activity were determined as described in Example 6. The degree of inhibition due to incorporation of dideoxy- and acyclo-nucleotides is tabulated below.

In data set [6] the test system is ROX-labeled primer annealed to single-stranded M13mp18 DNA. The data set can be described thus: Fluorescent (ROX) primer extension in presence of ddNTPs. It is filed as biochemical. The method, then:
In separate reactions, ddGTP, ddATP, ddTTP, and ddCTP were added to the above mix in concentrations of 50, 500 and 5000 μM each. Five units of polymerase 3173 mutant D49A were added and the reactions were incubated for 30 minutes at 70° C. Extension of the primer was detected by the ABI 310 Genetic Analyzer in Gene Scan mode.

Data set [7] deals with M13 primer on M13mp18 ssDNA. In words: Primer extension detected by Pico Green with chain terminating analogs. It is filed as biochemical. To be noted: control without chain terminating analogs, 2 mM each dNTP. The procedure:
In a second experiment, incorporation was tested by detection of DNA synthesis using a double-strand specific fluorescent dye, Pico Green (Invitrogen). […] In separate reactions, a mix of ddGTP, ddATP ddTTP, ddCTP (2 mM each) and a mix of the four acyNTPs (2 mM each) were added to extension reactions followed by DNA polymerase. As a control, identical reactions without added chain terminating analogs were also performed. Polymerase 3173 mutant D49A was tested and, for comparison, T7 DNA polymerase, which incorporates ddNTPs with very low discrimination, and Klenow fragment of E. coli polymerase I and VENTR DNA polymerase (New England Biolabs), both of which have a higher discrimination, were also tested. Extension of the primer was detected by fluorescence of Pico Green dye.

Procedure for lacIq gene: Fidelity was determined by a modification of the standard assay in which the lacIq gene is amplified by the DNA polymerase of interest and inserted into a plasmid containing genes encoding a functional lacZ alpha peptide and a selectable marker. Primers of SEQ ID NOS:28 and 29 were used to amplify a sequence containing both the lacIq and the KanR gene. […] Normally a white phenotype is seen for clone containing this construct when plated on X-Gal. Mutation of the lacIq results in a blue phenotype for the colonies when plated on X-Gal.
For high fidelity PCR amplification, five units of the wild-type (proofreading) DNA polymerase 3173 (SEQ ID NO: 6) was tested using the following mix (50 mM Tris HCl (pH 9.0 at 25° C.), 50 mM KCl, 10 mM (NH4)2SO4, 1.5 mM MgSO4, 1.5 mM MgCl2, 0.1% triton-X100, 250 mM ectoine and 0.2 mM each of dGTP, dATP, dTTP and dCTP. Opposing primers of SEQ ID 28 and 29 (1 μM each) amplified the expected 2 k kb product from template SEQ ID 30 (10 ng). After thermal cycling (94° C. for 1 minute, 25 cycles of (94° C. for 15 seconds, 60° C. for 15 seconds, 72° C. for 2.5 minutes) and 72° C. 7 minutes), reaction products were quantified to determine “fold amplification,” (see below) using agarose gel electrophoresis. Both primers contain Eco109I sites. The PCR product was digested with Eco109I and inserted into the Eco109I site of pUC19. 10 G cells transformed by the construct were plated on LB plates containing ampicillin (100 μg/ml), kanamycin (30 μg/ml) and X-Gal (50 μg/ml). Blue and white colony counts were used for the fidelity determinations.

B1: polymerase 3173: thermostable viral DNA polymerase with the amino acid sequence of SEQ ID NO:6 (protein)
chain: MGEDGLSLPKMMNTPKPILKPQPKALVEPVLCDSIDEIPAKYNEPVYFDLETDEDRPVLASIYQPHFERKVYCLNLLKEKVARFKDWLLKFSEIRGWGLDFDLRVLGYTYEQLRNKKIVDVQLAIKVQHYERFKQGGTKGEGFRLDDVARDLLGIEYPMNKTKIRETFKNNMFHSFSNEQLLYASLDAYIPHLLYEQLTSSTLNSLVYQLDQQAQKVVIETSQHGMPVKLKALEEEIHRLTQLRSEMQKQIPFNYNSPKQTAKFFGVNSSSKDVLMDLALQGNEMAKKVLEARQIEKSLAFAKDLYDIAKRSGGRIYGNFFTTTAPSGRMSCSDINLQQIPRRLRSFIGFDTEDKKLITADFPQIELRLAGVIWNEPKFIEAFRQGIDLHKLTASILFDKNIEEVSKEERQIGKSANFGLIYGIAPKGFAEYCIANGINMTEEQAYEISQKVEEVLHKDCRQHQVAYERFKYNEYVDNETWLNRTYRAWKPQDLLNYQIQGSGAELFKKAIVLLKETKPDLKIVNLVHDEIVVEADSKEAQDLAKLIKEKMEEAWDWCLEKAEEFGNRVAKIKLEVEEPHVGNTWEKP
modifications: Uncultured newly isolated virus
With B1, the “Thermostability (T1/2 at 95°)” value was determined as 10 min. Besides, the “reverse transcription in presence of manganese versus magnesium” value with Poly rA: Oligo dT was “equivalent”. Also, the “Incorporation of dTTP” value in the data set on Poly rA: Oligo dT (1 U enzyme, 60° C. 20 minutes (commercial enzymes per manufacturers' conditions)) was 1.037 nmol. The estimated overall yield result in data set [1] (5 units, 1 ng template, 16 hours at 55° C.) is on record as “approximately 50 μg”. Further, in [1], the amplification result is listed as “up to 50,000 fold”. Moreover, the Extension from nicks entry in [2] is on record as “strong”. Besides, in data set [2] (nicking enzyme present, 2 hours at 56° C., 200 units 3173 wt or 400 units D49A), the “yields of DNA product” value was “multi-microgram yields”. Moreover, in data set [3], the Km was determined as 5.3 nM. Further, the “3′-5′ exonuclease activity” value in data set [4] is listed as “strong”. For the same molecule, the nuclease activity result in data set [4] (assay detects levels below 0.1% of wild-type) is reported as “potent”. In addition, in the data set with lacIq gene, the Fidelity is given as 6.98 × 10^4. In the data set on lacIq gene (listed as DNA polymerase 3173), the Fidelity was 6.98E+04. Further, the Strand displacement entry in data set [5] (listed as 3173) is given as “strong”. Moreover, in data set [5] (listed as Polymerase 3173), the Strand displacement result was “displaced the nascent strand of DNA and continued DNA synthesis”.

B2: polymerase 3173 mutant D49A/F418Y: double mutant of polymerase 3173 with both a D49A and a F418Y mutation, SEQ ID NO:27 (protein)
chain: MGEDGLSLPKMMNTPKPILKPQPKALVEPVLCDSIDEIPAKYNEPVYFALETDEDRPVLASIYQPHFERKVYCLNLLKEKVARFKDWLLKFSEIRGWGLDFDLRVLGYTYEQLRNKKIVDVQLAIKVQHYERFKQGGTKGEGFRLDDVARDLLGIEYPMNKTKIRETFKNNMFHSFSNEQLLYASLDAYIPHLLYEQLTSSTLNSLVYQLDQQAQKVVIETSQHGMPVKLKALEEEIHRLTQLRSEMQKQIPFNYNSPKQTAKFFGVNSSSKDVLMDLALQGNEMAKKVLEARQIEKSLAFAKDLYDIAKRSGGRIYGNFFTTTAPSGRMSCSDINLQQIPRRLRSFIGFDTEDKKLITADFPQIELRLAGVIWNEPKFIEAFRQGIDLHKLTASILFDKNIEEVSKEERQIGKSANYGLIYGIAPKGFAEYCIANGINMTEEQAYEISQKVEEVLHKDCRQHQVAYERFKYNEYVDNETWLNRTYRAWKPQDLLNYQIQGSGAELFKKAIVLLKETKPDLKIVNLVHDEIVVEADSKEAQDLAKLIKEKMEEAWDWCLEKAEEFGNRVAKIKLEVEEPHVGNTWEKP
On to B2, for which the “Activity, no terminators” value in the data set with activated ct DNA came out at 100.0%. The “primer extension at 0.2× ratio of ddGTP:dGTP” value in [6] (0.2× ddGTP:dGTP) was “nearly complete inhibition of primer extension”. Moreover, the “discrimination against chain terminating nucleotides” value in data set [6] (conclusion drawn from the extension/incorporation data) is “nearly zero”.

B3: T7: T7 DNA polymerase, which incorporates ddNTPs with very low discrimination (protein, UniProt P00581 1-704, looked up)
DNA-directed DNA polymerase: MIVSDIEANALLESVTKFHCGVIYDYSTAEYVSYRPSDFGAYLDALEAEVARGGLIVFHNGHKYDVPALTKLAKLQLNREFHLPRENCIDTLVLSRLIHSNLKDTDMGLLRSGKLPGKRFGSHALEAWGYRLGEMKGEYKDDFKRMLEEQGEEYVDGMEWWNFNEEMMDYNVQDVVVTKALLEKLLSDKHYFPPEIDFTDVGYTTFWSESLEAVDIEHRAAWLLAKQERNGFPFDTKAIEELYVELAARRSELLRKLTETFGSWYQPKGGTEMFCHPRTGKPLPKYPRIKTPKVGGIFKKPKNKAQREGREPCELDTREYVAGAPYTPVEHVVFNPSSRDHIQKKLQEAGWVPTKYTDKGAPVVDDEVLEGVRVDDPEKQAAIDLIKEYLMIQKRIGQSAEGDKAWLRYVAEDGKIHGSVNPNGAVTGRATHAFPNLAQIPGVRSPYGEQCRAAFGAEHHLDGITGKPWVQAGIDASGLELRCLAHFMARFDNGEYAHEILNGDIHTKNQIAAELPTRDNAKTFIYGFLYGAGDEKIGQIVGAGKERGKELKKKFLENTPAIAALRESIQQTLVESSQWVAGEQQVKWKRRWIKGLDGRKVHVRSPHAALNTLLQSAGALICKLWIIKTEEMLVEKGLKHGWDGDFAYMAWVHDEIQVGCRTEEIAQVVIETAQEAMRWVGDHWNFRCLLDTEGKMGPNWAICH
In the case of B3, the “Primer extension, dNTPs” value in data set [7] is given as 100.0%.

A word on the Km: it is the substrate concentration at which the rate is half of its maximum.
